Data on four molecules can be found in patent publication US10501734B2, “Compositions and methods of use thereof for making polypeptides with many instances of nonstandard amino acids” (Yale University, priority 2014, dated 2019).

“Also recorded” adds a separate entry of the source.

One experiment deals with GFP(3TAG). Briefly: nsAA library screening, GFP(3TAG) fluorescence in 384 well plates. Format: cell-based, E. coli. As to conditions: GFP(3TAG) production in the presence of pAcF, pAzF and 236 other nsAAs. How it is done: Liquid cell cultures of strains harboring chromosomally integrated OTSs and GFP reporter plasmids were inoculated from frozen stocks and grown to confluence overnight. Cultures were then inoculated at 1:20 dilution in LBmin media supplemented with 30 μg/ml kanamycin. Strains were inoculated by addition of 1:20 confluent cell culture (grown overnight) and allowed to grow at 34° C. to an OD600 of 0.5-0.8 in a shaking plate incubator at 650 r.p.m (˜3 h). AARS expression was then induced by the addition of 0.2% arabinose, GFP expression was induced by the addition of 60 ng/ul anhydrotetracycline, and the appropriate nsAA was added to a concentration of 1 mM. Cells were incubated at 34° C. for an additional 16 h. Liquid cell cultures of strains harboring plasmid-based OTSs and GFP or ELP-GFP reporter plasmids were inoculated from frozen stocks and grown to confluence overnight. Cultures were then inoculated at 1:20 dilution in 2×YT media supplemented with 30 μg/ml kanamycin and 20 μg/ml chloramphenicol. […] Cells were allowed to grow at 34° C. to an OD600 of 0.5-0.8 in a shaking plate incubator at 650 r.p.m (˜3 h), reporter protein expression was then induced by the addition of 60 ng/ul anhydrotetracycline, and cells were incubated at 34° C. for an additional 16 h.
For 384 well plate-based assays, fluorescence and OD600 were directly measured following expression. For 96 well plate-based assays, cells were centrifuged at 4,000 g for 4 min. Supernatant medium was removed and cells were resuspended in PBS. This process was repeated twice with PBS. GFP fluorescence was measured on a Biotek spectrophotometric plate reader using excitation and emission wavelengths of 395 and 509 nm, respectively). Fluorescence signals were normalized by dividing the fluorescence counts by the OD600 reading. The nsAAs used in this study were purchased from Sigma-Aldrich (St. Louis, Mo.), Chemlmpex (Wood Dale, Ill.), and Bachem (Torrance, Calif.). Solutions of nsAAs (50 mM) were made in water or 50 mM NaOH; these stock solutions were diluted 50- or 100-fold (to 1 mM final concentration) into medium used for bacterial growth. […]

The subject of another experiment is TAG codons. Briefly: MRM mass spectrometry quantitation of nsAA incorporation in ELP-GFP. Conditions: for pAcF (Y) / pAcF: calculated as 100%−Y %−F %. Also on record: species or system E. coli. The protocol: Purified ELP-GFP protein was dissolved by vortex in protein solubilization buffer (15 mM Tris-HCl, 1.5 mM EDTA, pH=8.5) and the protein concentration was determined by UV280. Solubilization buffer was then added to adjust the concentration of the protein stock solutions to 2.0 μg/μl. For protein digestion, 12.5 μl of this solution (25 μg) was supplemented with 3.125 μl freshly prepared digestion buffer 5×. The composition of the digestion buffer 5× was: 50 mM Tris-HCl pH=8.5, 5 mM EDTA, 50 mM DTT and 2.5% (w/v) freshly prepared acid labile surfactant II (ALS II). Proteins were thermally denatured in a heat block at 95° C. for 5 min and the reaction was then quenched on ice. To alkylate the cysteines, 2.5 μl of 1 M Tris-HCl buffer (pH=8.5) and 5.83 μl freshly prepared 100 mM IAA solution were added. The reaction proceeded for 30 min at room temperature and in the dark. Excess IAA was quenched with 0.875 μl of 200 mM aqueous DTT solution. Next, 1.25 μl LysC enzyme solution, prepared at 7.0×10^−4 activity units/μl in water, were added and protein was digested for 4 h at 37° C. in an incubator without shaking. The digest was supplemented with 157.77 μl 105.6 mM Tris-HCl pH=8.5 buffer containing 5.28 mM CaCl2. For digestion with trypsin, 3.6 μl sequencing grade porcine trypsin (Promega), provided as solution with 0.5 μg/μl trypsin, was added and digestion proceeded for 15 h at 37° C. in an incubator without shaking. The digest was quenched by adding 15.63 μl 20% TFA solution. The pH value of the digest was tested with pH indicator paper to ensure that the pH value was between a value of 1 and 2 to ensure efficient cleavage conditions for ALSII. Detergent was hydrolyzed for 15 min at 23° C. and peptides were desalted using C18 UltraMicroSpin columns (The Nest Group, Southborough, Mass.) following the instructions provided with the columns. Eluted peptides solutions were dried in a vacuum centrifuge which was operated at 45° C. The dried peptides were then dissolved by vortex in 11 μl peptide solvent consisting of 2:3:7 by volume 70% FA, 1-propanol and 0.5% acetic acid. The peptide concentration was determined by UV280 enabling equal loading for LC-MS. Peptide stock solutions were frozen at −80° C. until use. For shotgun proteomic analysis, peptide stock solutions were diluted to a concentration of 60 ng/μl in 3:8 by volume 70% formic acid 0.1 TFA and 5 μl corresponding to 300 ng total peptides were injected for each analysis.
The C-terminally labeled stable isotope labeled peptides (lysine (^13C6^15N2) or arginine (^13C6^15N4)) VPGAGVPGYGVPGVGK, VPGAGVPGFGVPGVGK and FEGDTLVNR were obtained as a lyophilized powder supplied as 1 nmol aliquots. Peptides were dissolved in 30% acetonitrile 0.1% formic acid at a concentration of 20 pmol/μl. Standards were then combined to obtain a master mix with 6.666 pmol/μl of each peptide. Dilution of peptide standards and protein digest for MRM was performed in Agilent polypropylene sample vials with MRM solvent consisting of 100 ng/μl sodium deoxycholate in 3:7 by volume DMSO/0.1% formic acid. Calibration of the instrument was performed with a 11 point calibration curve with 0, 1, 2, 5, 10, 20, 50, 100, 200, 500 and 1000 fmol peptide injected. Peptide stock solutions from the digestion of ELP-GFP were prepared at 5 ng/μl in MRM solvent containing 50 fmol/μl of the stable isotope labeled peptides. MRM solvent blank injections between sample injections and quality control standards analyzed before and after sample injection ensured consistent performance of the MRM platform.
Shotgun discovery data from the analysis of stable isotope labeled peptides and ELP-GFP digests were imported into Skyline^2 software v. 2.5 to extracted suitable transitions for MRM quantitation of peptides. A detailed description of this workflow will be reported somewhere else^3. Briefly, at least 3 transitions were extracted for peptides reporting incorporation of natural and unnatural amino acids at the position of the stop codon. […]

Where [1] appears, read: ELP(10TAG)-GFPMS, nsAA added pAcF.
Setting [2] is: ELP(30TAG)-GFPMS, nsAA added pAcF.
Where [3] appears, read: ELP(10TAG)-GFPMS, nsAA added pAzF, N = 3.

B1: pAcFRS.1.t1: pAcFRS variant A167D, R257G, SEQ ID NO: 5 (protein)
chain: MDEFEMIKRNTSEIISEEELREVLKKDEKSALIGFEPSGKIHLGHYLQIKKMIDLQNAGFDIIILLADLHAYLNQKGELDEIRKIGDYNKKVFEAMGLKAKYVYGSEFQLDKDYTLNVYRLALKTTLKRARRSMELIAREDENPKVAEVIYPIMQVNGCHYRGVDVDVGGMEQRKIHMLARELLPKKVVCIHNPVLTGLDGEGKMSSSKGNFIAVDDSPEEIRAKIKKAYCPAGVVEGNPIMEIAKYFLEYPLTIKGPEKFGGDLTVNSYEELESLFKNKELHPMRLKNAVAEELIKILEPIRKRL
For the molecule B1, in the experiment on GFP(3TAG), the “nsAA specificity (polyspecificity)” value is listed as “polyspecifity for at least pAcF, pAzF, StyA, 4IF, 4BrF, 4ClF, 4MeF, 4Cf3F, MeY, 4NO2F, 4BuF, BuY, 2NaA, PheF”. Besides, in the experiment on TAG codons (setting [1]), the “F at TAG position” value worked out at 0.26%, the “Y at TAG position” value worked out at 2.42% and the “pAcF (Y)” value is 97.32%. Moreover, in the experiment with TAG codons (setting [2]), the “F at TAG position” value is 0.29%, the “Y at TAG position” value turned out to be 1.53% and the pAcF was 98.18%. In addition, the “near cognate suppression and mischarging events of K, P, L/I, and Q” value in the experiment with TAG codons (content in proteins produced) is “striking decrease”.

B2: pAcFRS.2.t1: pAcFRS variant L65V, A167D, R257G, SEQ ID NO: 8 (protein)
chain: MDEFEMIKRNTSEIISEEELREVLKKDEKSALIGFEPSGKIHLGHYLQIKKMIDLQNAGFDIIIVLADLHAYLNQKGELDEIRKIGDYNKKVFEAMGLKAKYVYGSEFQLDKDYTLNVYRLALKTTLKRARRSMELIAREDENPKVAEVIYPIMQVNGCHYRGVDVDVGGMEQRKIHMLARELLPKKVVCIHNPVLTGLDGEGKMSSSKGNFIAVDDSPEEIRAKIKKAYCPAGVVEGNPIMEIAKYFLEYPLTIKGPEKFGGDLTVNSYEELESLFKNKELHPMRLKNAVAEELIKILEPIRKRL
Take B2: in the experiment on GFP(3TAG), the “nsAA specificity (polyspecificity)” value was “polyspecifity for at least pAcF, pAzF, StyA, 4IF, 4BrF, 4ClF, 4MeF, 4Cf3F, MeY, 4NO2F, 4BuF, BuY, 2NaA, PheF”.

B3: pAcFRS: progenitor M. jannaschii based p-acetyl-L-phenylalanine AARS, SEQ ID NO:1 (Young, et al., 2010) (protein, listed as Methanocaldococcus jannaschii)
chain: MDEFEMIKRNTSEIISEEELREVLKKDEKSALIGFEPSGKIHLGHYLQIKKMIDLQNAGFDIIILLADLHAYLNQKGELDEIRKIGDYNKKVFEAMGLKAKYVYGSEFQLDKDYTLNVYRLALKTTLKRARRSMELIAREDENPKVAEVIYPIMQVNGCHYRGVDVAVGGMEQRKIHMLARELLPKKVVCIHNPVLTGLDGEGKMSSSKGNFIAVDDSPEEIRAKIKKAYCPAGVVEGNPIMEIAKYFLEYPLTIKRPEKFGGDLTVNSYEELESLFKNKELHPMRLKNAVAEELIKILEPIRKRL
B3: in the experiment with TAG codons (setting [1]), the “F at TAG position” value is on record as 0.36%, the “Y at TAG position” value came to 1.37% and the “pAcF (Y)” value is 98.26%. Also, in the experiment with TAG codons (setting [2]), the “F at TAG position” value is on record as 0.55%, the “Y at TAG position” value was 1.14% and the pAcF was 98.31%.

B4: pAzFRS.1.t1: pAcFRS variant D158V, I159M, L162D, A167Y, R257G, SEQ ID NO: 11 (protein)
chain: MDEFEMIKRNTSEIISEEELREVLKKDEKSALIGFEPSGKIHLGHYLQIKKMIDLQNAGFDIIILLADLHAYLNQKGELDEIRKIGDYNKKVFEAMGLKAKYVYGSEFQLDKDYTLNVYRLALKTTLKRARRSMELIAREDENPKVAEVIYPIMQVNVMHYDGVDVYVGGMEQRKIHMLARELLPKKVVCIHNPVLTGLDGEGKMSSSKGNFIAVDDSPEEIRAKIKKAYCPAGVVEGNPIMMEIAKYFLEYPLTIKGPEKFGGDLTVNSYEELESLFKNKELHPMRLKNAVAEELIKILEPIRKRL
For the molecule B4, the “nsAA specificity (polyspecificity)” value with GFP(3TAG) is recorded as “specific for pAzF; also recorded: exceptional specificity toward pAzF with almost complete exclusion of any other nsAA”. In the experiment with TAG codons (setting [3]), the “F at TAG position” value was determined as 3.34% and the “Y at TAG position” value worked out at 0.13%.
